Publication PMC9822811

Target: recombinant SARS-CoV-2 RBD of original WT strain (SARS-CoV-2) (UniProt P0DTC2)
Experiment: SPR

For REGN-10933, the Kd was 0.576 nM.
